Measurements: paper PMC4338613

Key:
Assay in all cases: co-IP
[1] = molecular target: LAP-tagged FUS/TLS P525L (human) (UniProt P35637)
[2] = molecular target: LAP-tagged FUS/TLS R495X (human) (UniProt P35637)
[3] = molecular target: LAP-tagged FUS/TLS R521G (human) (UniProt P35637)

Measured: fold reduction of association against wild-type FUS/TLS

Sm-B/D (components of Sm core)
5 fold: all assays above
